Test results taken from the supplement of paper PMC9732359.
± gives the uncertainty stated by the source.

Assay: protein stability index of a GFP-peptide fusion (yeast GPS) (PSI 1-4); higher = more stable; sorted into four equal gates, so the index is relative within each strain
Outline: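 Plasmids isolated from each sorting gate were PCR-amplified and Illumina-sequenced, and barcodes assigned the reads to strains. The gates, four of equal size, were set by GFP/Cherry fluorescence ratio on mid-log cultures in leucine-free medium. These cultures were yeast carrying a pooled library of tiled 17-residue yeast protein peptides fused downstream of GFP on a plasmid that also expresses Cherry. The protein stability index is the sum of every gate's read frequency times its gate number.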

Sequence	protein stability index (doa10∆)	protein stability index (pdr5∆)	protein stability index (san1∆)	protein stability index (ubr1∆)
NYNSTSRSTEKKNDMNT [SIR4]	2.33 ± 0.061	2.48 ± 0.058	2.61 ± 0.079	2.55 ± 0.049
NYTKDNEYYPMCEQALS [YCS4]	2.25 ± 0.066	2.61 ± 0.087	2.6 ± 0.071	2.47 ± 0.052
NYVAVGDVSNLPYLDEL [QCR2]	3.13 ± 0.087	3.19 ± 0.096	2.97 ± 0.099	3.18 ± 0.051
NYYSNKSNSTGNISSST [REC8]	2.79 ± 0.1	3.02 ± 0.099	2.85 ± 0.059	3.09 ± 0.064
NYYYLFDKKSFFNGKAL [PRP8]	2.55 ± 0.046	2.16 ± 0.043	2.91 ± 0.055	2.38 ± 0.037
PAFSFGISNGSESKDSD [YLR335W/NUP2]	3.23 ± 0.093	3.05 ± 0.11	3.12 ± 0.063	3.08 ± 0.088
PAFSFNSSVGNKTDAQA [YJL041W/NSP1]	2.82 ± 0.14	3.47 ± 0.11	2.85 ± 0.1	3.16 ± 0.085
PAFSNSNGFNNVTFGSK [YMR153W/NUP53]	2.68 ± 0.054	2.96 ± 0.067	3.1 ± 0.037	3.13 ± 0.048
PAFTFGAQKDNEKKTEE [YJL041W/NSP1]	3.35 ± 0.2	2.64 ± 0.28	3.11 ± 0.26	3.46 ± 0.2
PAGTSLFGNNAGNTTTG [YGL172W/NUP49]	2.98 ± 0.16	3.24 ± 0.088	2.88 ± 0.11	3.24 ± 0.084
PAPINSLSRDFVMKTRR [SNU114]	3.15 ± 0.081	2.95 ± 0.064	2.97 ± 0.049	3.15 ± 0.051
PCLSRSCTKCPQIVVPD [DIS3]	2.42 ± 0.034	2.56 ± 0.031	2.63 ± 0.033	2.57 ± 0.03
PDFKPWEHTAAEDQILA [SRB8]	2.83 ± 0.12	2.95 ± 0.12	3.03 ± 0.075	3.02 ± 0.091
PDGSFEDWSVEELIVDL [RPO26]	3.42 ± 0.17	2.06 ± 0.16	3 ± 0.13	2.84 ± 0.081
PDGVVVHRDDPALVGKL [SNF6]	3.3 ± 0.071	3.49 ± 0.071	3.36 ± 0.054	3.33 ± 0.053
PEDAQLLLAANTHLGAR [RPS0A]	1.63 ± 0.058	1.39 ± 0.052	1.63 ± 0.12	1.9 ± 0.068
PEELARILQQLKLDKII [RGR1]	2.51 ± 0.059	1.49 ± 0.05	3.15 ± 0.076	2.72 ± 0.063
PEGLLKSLWDYVKKNTE [TAF14]	3.01 ± 0.17	2.12 ± 0.076	–	3.13 ± 0.094
PEILRFKVYEPLLLVGL [RPS16A]	2.01 ± 0.12	2.31 ± 0.098	2.1 ± 0.18	2.65 ± 0.068
PESIDTILSSKLSNIWM [SRB2]	2.72 ± 0.08	2.78 ± 0.095	2.92 ± 0.054	2.91 ± 0.042

Sequence	protein stability index (doa10∆)	protein stability index (pdr5∆)	protein stability index (san1∆)	protein stability index (ubr1∆)
PETGDHVVGRIAEVGNK [RRP4]	3.27 ± 0.076	3.44 ± 0.065	3.05 ± 0.1	3.08 ± 0.15
PEYAKVGDFLLQYANNA [SIN4]	2.4 ± 0.085	2.55 ± 0.069	2.5 ± 0.066	1.97 ± 0.044
PFKFGKTSEKSENHTES [YOR098C/NUP1]	2.94 ± 0.16	3.05 ± 0.14	3.1 ± 0.15	2.92 ± 0.17
PFSFSSATSTTEQTKSK [YLR335W/NUP2]	2.99 ± 0.06	2.99 ± 0.058	2.85 ± 0.075	2.86 ± 0.054
PGHEMEDFLDKSYYLNT [AAR2]	3.29 ± 0.07	3.1 ± 0.076	2.81 ± 0.065	3.11 ± 0.04
PGMPNMPGMPNMPGMPK [SRP54]	3.37 ± 0.15	3.22 ± 0.095	3.21 ± 0.25	3.3 ± 0.071
PGPLPDTDSKPSSQSQN [YLR018C/POM34]	3.06 ± 0.079	3.15 ± 0.061	3.17 ± 0.063	2.98 ± 0.061
PGQKMSLFSHRKHTRGD [BRN1]	3.34 ± 0.23	2.95 ± 0.21	3.31 ± 0.15	3.22 ± 0.062
PHSLATKTTGKCGSVTV [RPS2]	1.2 ± 0.12	1.27 ± 0.1	–	–
PIDDTMTLLTDSLRKLY [MTW1]	1.89 ± 0.067	2.52 ± 0.062	1.73 ± 0.093	2.22 ± 0.052
PIKNRKNDTHYLLPDDF [BRN1]	2.98 ± 0.079	2.93 ± 0.094	2.85 ± 0.061	2.95 ± 0.058
PIMFQDFDDSTAQEINF [IRR1]	2.81 ± 0.057	2.92 ± 0.059	2.52 ± 0.053	2.88 ± 0.043
PISAVLRGCKFLQSVDI [GRR1]	2.08 ± 0.041	2.08 ± 0.053	1.83 ± 0.052	2.01 ± 0.036
PISEKGLTLSTTNLDID [RPP1]	2.82 ± 0.052	2.92 ± 0.041	3.05 ± 0.034	2.9 ± 0.049
PITGASLDLIKERRSLK [RPL24A]	3.04 ± 0.097	3.07 ± 0.078	3.02 ± 0.067	2.98 ± 0.06
PITSETAMKKVEDGNIL [RPL25]	3.05 ± 0.16	3.18 ± 0.095	3.12 ± 0.22	3.24 ± 0.15
PKARQELPTQLALEIIV [RRP46]	1.77 ± 0.046	1.76 ± 0.045	1.52 ± 0.11	2.07 ± 0.054
PKASSAKFFLNVSDEQL [ITC1]	3.1 ± 0.094	3.18 ± 0.055	3.17 ± 0.063	3.23 ± 0.075
PKDPSNVETYEQILQWV [BRR2]	2.77 ± 0.079	2.48 ± 0.098	2.91 ± 0.11	2.88 ± 0.12
PKMKDEEYDDDDDNSNV [SNF2]	3.4 ± 0.095	3.37 ± 0.16	3.23 ± 0.072	3.27 ± 0.15
